Usually Kd stands for the equilibrium constant for the complex coming apart. Lower therefore signals a tighter complex.

The test addresses T1, His-FtsZ fusion protein (Streptococcus suis SC19, UniProt A0A0H3MXZ7 1-409).
T1 sequence (looked up): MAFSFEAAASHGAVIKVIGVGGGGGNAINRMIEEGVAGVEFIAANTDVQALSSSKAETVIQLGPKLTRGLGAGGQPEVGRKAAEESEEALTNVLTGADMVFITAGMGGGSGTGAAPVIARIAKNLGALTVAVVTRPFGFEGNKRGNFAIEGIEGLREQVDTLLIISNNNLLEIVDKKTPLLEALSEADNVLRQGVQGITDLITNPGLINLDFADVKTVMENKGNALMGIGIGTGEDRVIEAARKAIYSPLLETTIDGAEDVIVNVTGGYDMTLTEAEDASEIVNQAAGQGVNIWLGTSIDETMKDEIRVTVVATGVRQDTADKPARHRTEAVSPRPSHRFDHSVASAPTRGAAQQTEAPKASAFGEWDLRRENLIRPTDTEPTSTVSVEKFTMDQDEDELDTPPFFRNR
In words: BLI. A general note: Biolayer interferometry detects binding as a change in optical thickness at a sensor tip.

B1: SepF labeled with biotin (natural protein, Streptococcus suis SC19, UniProt A4VTL1 1-187, looked up)
chain: MALKDTFKNLFNYFEVDEVNEVEEQADAYSMPNDRPKMRVANTTVAPVREQQPKVETRREARSESQLQRLHERQQELMTNNNEKEIVKTTIDIKFPKRYEDAPEMVNLLLDNASILIDFQYMSEQQARRCLDYLDGARSVLSGNLKKVSNTMWLLTPVNVTVNIEELRNAGTTTGVADSNFEFDIKR
modifications: biotin (biotin labeling kit; sites not stated)
Molecule B1 yielded a Kd of 0.67 nM.
